From US20240209086A1 (PETMEDIX, published 2024)
Where a chain is given by its changes, count along the chain named.

T1: canine CD20 on cells (HEK293, MDCK II, CLBL-1 or native B cells) (canine, UniProt Q3C2E2 1-297)
T1 construct: also called dCD20; cCD20
T1 chain: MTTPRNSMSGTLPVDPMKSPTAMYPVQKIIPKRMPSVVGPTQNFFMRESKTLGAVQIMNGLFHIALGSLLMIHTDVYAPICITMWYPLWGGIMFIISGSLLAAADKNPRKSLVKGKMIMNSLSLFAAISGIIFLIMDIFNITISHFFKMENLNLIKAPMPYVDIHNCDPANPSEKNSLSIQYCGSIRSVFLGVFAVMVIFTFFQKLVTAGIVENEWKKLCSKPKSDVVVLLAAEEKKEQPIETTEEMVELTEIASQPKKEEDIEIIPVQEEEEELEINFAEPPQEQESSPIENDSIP

B1: PMX198 (monospecific anti-canine CD3, canine IgG-B effector function deficient Fc) (antibody, V domains shown)
VH: EFTLQESGPGLVKPSQTLSLTCIVSGGSVTSSYYWNWIRQRPGRGLEWMGYWTGSTNYNPAFQGRISITPDTAKNQFSLQLSSMTTEDTAVYYCAREGGSSLQAFGNWGQGTLVTVSS
VL: SYVLTQLPSKNVTLKQPAHITCGGDNIGRKSVHWYQQKLGQAPILIIYYDSSRPTGIPERFSGANSGNTATLTISGALAEDEADYYCQVWDSSAKASVFGGGTHLTVL
B2: PMX186 (monospecific anti-canine CD3, canine IgG-B effector function deficient Fc) (antibody)
heavy: EVKLVESGGDLVKPGGSLRLSCVASGVTFSRYYMSWVRQAPGKGLQWVAYINSGGSTTSYADAVKGRFTISRDNAKNTLYLQMNSLRAEDTAVYYCASEGVGEIYGYKDFGMDYWGHGTSLFVSSASTTAPSVFPLAPSCGSTSGSTVALACLVSGYFPEPVTVSWNSGSLTSGVHTFPSVLQSSGLYSLSSMVTVPSSRWPSETFTCNVAHPASKTKVDKPVPKRENGRVPRPPDCPKCPAPESLGGPSVFIFPPKPKDTLLIARTPEVTCVVVDLGREDPEVQISWFVDGKQMQTAKTQPREEQFNGTYRVVSVLPIGHQDWLKGKQFTCKVNHIGLPSPIERTISKARGQAHQPSVYVLPPSREELSKNTVSLTCLIKDFFPPDIDVEWQSNGQQEPESKYRTTPPQLDEDGSYFLYSKLSVDKSRWQRGDTFICAVMHEALHNHYTQKSLSHSPGK
VL: B1 VL with R29S, I44V, S52R, S97W, G101E, H104Q
B3: PMX200 (monospecific anti-canine CD3, canine IgG-B effector function deficient Fc) (antibody, V domains shown)
VH: ELTLQESGPGLVKPSQTLSLTCIVSGGSVTSSYYWNWIRQSPGRGLEWMGYWTGNTNYNPALQGRIFITADTAKNQFSLQLRSMTTEDTAVYYCARGGYGYHYGMDYWGHGTSVFVSS
VL: B1 VL with N11S, T13A, R29S, S31R, I44A, Y48S, Y49F, S51N, S93T, V98I
B4: PMX190 (monospecific anti-canine CD3, canine IgG-B effector function deficient Fc) (antibody)
heavy: EVQLVESGGDLVKPGGSLRLSCVASGFTFSSYQMSWVRQAPGKGLQWVAYISSGGGRTTYADAVRGRLTISRDNAKNTLYLQMNSLRAEDAAVYYCAREGGGEIYGYKDYGMDYWGHGTSLFVSSASTTAPSVFPLAPSCGSTSGSTVALACLVSGYFPEPVTVSWNSGSLTSGVHTFPSVLQSSGLYSLSSMVTVPSSRWPSETFTCNVAHPASKTKVDKPVPKRENGRVPRPPDCPKCPAPESLGGPSVFIFPPKPKDTLLIARTPEVTCVVVDLGREDPEVQISWFVDGKQMQTAKTQPREEQFNGTYRVVSVLPIGHQDWLKGKQFTCKVNHIGLPSPIERTISKARGQAHQPSVYVLPPSREELSKNTVSLTCLIKDFFPPDIDVEWQSNGQQEPESKYRTTPPQLDEDGSYFLYSKLSVDKSRWQRGDTFICAVMHEALHNHYTQKSLSHSPGK
VL: B1 VL with R29S, I44V, S97W, G101E, H104Q
B5: PMX185 (monospecific anti-canine CD3, canine IgG-B effector function deficient Fc) (antibody)
heavy: EVQLVESGGDLVKPGGSLRLSCVASGFTFSSYHMSWVRQAPGKGLQWVASINSGGSRTSYVDAVKGRFTISRDNAKKTLYLQMNSLRAEDTAVYYCASGRTGPKLGLGDYGMDSWGHGTSLFVSSASTTAPSVFPLAPSCGSTSGSTVALACLVSGYFPEPVTVSWNSGSLTSGVHTFPSVLQSSGLYSLSSMVTVPSSRWPSETFTCNVAHPASKTKVDKPVPKRENGRVPRPPDCPKCPAPESLGGPSVFIFPPKPKDTLLIARTPEVTCVVVDLGREDPEVQISWFVDGKQMQTAKTQPREEQFNGTYRVVSVLPIGHQDWLKGKQFTCKVNHIGLPSPIERTISKARGQAHQPSVYVLPPSREELSKNTVSLTCLIKDFFPPDIDVEWQSNGQQEPESKYRTTPPQLDEDGSYFLYSKLSVDKSRWQRGDTFICAVMHEALHNHYTQKSLSHSPGK
VL: B1 VL with R29S, I44V, L45M, S97W, G101E, H104Q
B6: PMX191 (monospecific anti-canine CD3, canine IgG-B effector function deficient Fc) (antibody, V domains shown)
VH: EVQLVESGGDLVKPAGSLRLSCVASGFTFSDYSMSWVRQGPEKGLQLVAGMNSDGSTTYYTDAVRGRFTISRDNAKNTMYLQMNSLRDEDTAIYYCAKGAAAPDYWGQGTLVTVSS
VL: SYELTQPPSVNVTLRETAHITCGGDRIGSKYVQWIQQIPGQAPVVIIYKDNNRPTGIPERFSGANSGNTATLTISGALAEDEADYYCQVGDNYTWVFGEGTQLTVL
B7: PMX192 (monospecific anti-canine CD3, canine IgG-B effector function deficient Fc) (antibody, V domains shown)
VH: EVQLVESGGDLVKPAGSLRLSCVASGFTFSDYSMSWVRQAPEKGLQLVAGINGDGSTTYYTDAVKGRFTISRDNAKNTVYLQMNSLRAEDTAMYYCAKGAGTGDFWGQGTLVTVSS
VL: B6 VL with D25A, R26S, S29R, N51S, N92S, Y93G, T94A
B8: PMX227 (monospecific anti-canine CD20, canine IgG-B, lambda C5) (antibody, V domains shown)
VH: EMQLVESGGALVKPGGSLRLSCVASGFTFRRYHMSWVRQAPGQGLQWVAYIDSDGSPTSYGDSVKGRFTISRDNAKNTLFLQMNSLRVDDTAVYYCTTLDYWGRGTLVTVSS
VL: SYVLTQVPSKNVTLKQPAHITCGGDNIGGKSVHWYQQKLGQAPLLIIYYDTRRPTGIPERFSGANSGNTATLTISRALAEDEADYYCQVWDSSGNVFGGGTHLTVIG
B9: PMX228 (monospecific anti-canine CD20, canine IgG-B, lambda C5) (antibody, V domains shown)
VH: EVQLVQSGGDLVKPGGSLRLSCVASGYTFTRYHMSWVRQAPGKGLQWVAFINSDGTGITYGDAVKGRFTISRDNAKNTLYLQMNSLRAEDTAIYYCTTFDSWGQGTLVTVSS
VL: B8 VL with V7L, G29S, L44I, T51S, R76G, I106L
B10: PMX229 (monospecific anti-canine CD20, canine IgG-B, lambda C5) (antibody, V domains shown)
VH: EVQLVESGGDLVKPGGSLRLSCVASGITFSRYHMSWVRQAPGKGLQWVAFINTGRSSTNYADAVAGRFTISRDNAKNTLYLQMNGLTVEDTAVYYCSTLDYWGQGTLVTVSS
VL: B8 VL with V7L, N11S, G29S, L44I, T51N, R52N, R76G, Q88H, G94V, I106L
B11: PMX230 (monospecific anti-canine CD20, canine IgG-B, lambda C5) (antibody, V domains shown)
VH: EVHLVESGGDLVKPGGSLRLSCVASGITFNRYYMNWVRQTPGKGLQWVAYIDSGGSPTTYADAVKGRFTISRDNAKNTLYLQMNSLRAEDTAVYYCTSFDYWGQGTLVTVSS
VL: B8 VL with V7L, G29S, L44I, R52S, R76G, G94A, I106L
B12: PMX265 (monospecific anti-canine CD20, canine IgG-B, lambda C5) (antibody, V domains shown)
VH: B9 VH with T30S
VL: B8 VL with V7L, G29S, L44I, T51S, R76G, I106L
B13: PMX231 (monospecific anti-canine CD20, canine IgG-B, lambda C5) (antibody, V domains shown)
VH: EVQLVESGGDLVKPGGSLRLSCVASGLTFSRYHMSWIRQAPGKGLQWVAYISSGGSSTNYAGSVKGRFTVSRDNAKNTLYLQMNSLRAEDTAVYYCTSLDYWGQGTLVTVSS
VL: B8 VL with V7L, G29S, L44V, T51S, R76G, G94D, I106L

Biological target: canine CD3 on canine T cells (canine PBMC) (canine, UniProt P27597 22-202)
Experiment: cell-based or functional assay

Chain of canine CD3 on canine T cells (canine PBMC) (P27597 22-202 limits assumed, chain 1 of 3): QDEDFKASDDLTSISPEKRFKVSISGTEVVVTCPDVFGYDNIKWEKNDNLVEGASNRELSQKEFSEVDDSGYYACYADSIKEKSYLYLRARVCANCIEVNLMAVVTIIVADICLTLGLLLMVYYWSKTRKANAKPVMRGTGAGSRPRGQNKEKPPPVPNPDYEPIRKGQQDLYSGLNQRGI
Chain of canine CD3 on canine T cells (canine PBMC) (chain, as listed by the source limits assumed, chain 2 of 3): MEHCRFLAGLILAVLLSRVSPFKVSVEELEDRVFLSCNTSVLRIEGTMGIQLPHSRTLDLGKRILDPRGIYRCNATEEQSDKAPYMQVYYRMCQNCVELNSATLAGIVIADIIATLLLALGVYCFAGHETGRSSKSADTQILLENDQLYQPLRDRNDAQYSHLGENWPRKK
Chain of canine CD3 on canine T cells (canine PBMC) (chain, as listed by the source limits assumed, chain 3 of 3): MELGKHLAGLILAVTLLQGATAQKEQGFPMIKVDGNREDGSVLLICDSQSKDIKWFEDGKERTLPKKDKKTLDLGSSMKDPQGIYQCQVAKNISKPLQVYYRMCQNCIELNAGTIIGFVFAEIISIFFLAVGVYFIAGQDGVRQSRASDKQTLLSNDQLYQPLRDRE

CD25 Activation, Day 6, IS	CD25 Activation, Day 6, PB	CD25 Activation, Day 9, IS	CD25 Activation, Day 9, PB	IFNy Concentration pg/ml, Day 6, IS [pg/mL]	IFNy Concentration pg/ml, Day 9, IS [pg/mL]	IFNy Concentration pg/ml, Day 9, PB [pg/mL]	Ki67 Proliferation, Day 6, IS	Ki67 Proliferation, Day 6, PB	Ki67 Proliferation, Day 9, IS	Binder
11.3	26.8	10.4	25.5	82.8	191	2790	0.87	0.61	4.37	B1
10.5	20	10.9	17.6	27.7	217	1220	2.63	0.2	1.09	B2
8.83	19.5	13.1	15	59.6	363	822	0.76	2.92	1.29	B3
11.3	14.8	13.5	11.8	54.4	384	699	0.73	0.98	0.9	B4
14.7	11.9	10.3	13.9	86.7	217	166	0.93	0.85	2.65	B5
8.97	10.5	14.2	14.9	31.9	370	744	0.66	0.35	2.89	B6
10.4	12.7	10.3	11.3	75.9	210	758	1.29	0.66	3.65	B7

Same assay, conditions: not given

Ki67 Proliferation, Day 9, PB	Binder
0	B1
0.74	B2
0.78	B3
2.73	B4
0.39	B5
0.6	B6
1.56	B7

Biological target: T1, canine CD20 on cells (HEK293, MDCK II, …)
Experiment: flow cytometry, canine CD20 HEK293 cells, 10 µg/ml, FITC anti-canine IgG
Experimental: A CD20 binding screen was performed on candidate proteins produced from the canine CD20 immunisation as described in Examples 2 and 3. CHO cells supernatants containing candidate antibodies were diluted to 10 μg/ml in FACS buffer (PBS containing 3% FBS) and screened for their ability to bind canine CD20 expressed on cell surface. In brief, 1-2×10⁵ canine CD20-expressing HEK cells were incubated with candidate mAbs for one hour at 4° C., at a fixed concentration of 10 μg/ml followed by incubation with 5 μg/ml of FITC-conjugated anti-canine IgG secondary antibody (Bethyl Laboratories) for 1 hour at 4° C. Cells incubated with anti-canine IgG FITC secondary antibody and without primary anti-canine CD20 antibody, or with isotype control primary antibody, were used as negative controls. The data were acquired on either a Beckman Coulter CytoFLEX or a BD Accuri C6 Plus flow cytometer and analysed using FlowJo software.

binding result	Binder
binds	B8
binds	B9
binds	B10
binds	B11
binds	B12
binds	B13
